Assays:
[1] = molecular target: cis-epoxysuccinate hydrolase producing L(+)-tartaric acid from Klebsiella sp. BK-58 (KlCESH[L]) (Klebsiella sp. BK-58); test: SEC; gel filtration of the purified enzyme against a molecular standard mixture (ovalbumin, chymotrypsin, ribonuclease A, aprotinin); aggregation state of RhCESH[L] unchanged in the presence or absence of DTT
[2] = molecular target: cis-epoxysuccinate hydrolase producing L(+)-tartaric acid from Rhodococcus opacus (RhCESH[L]) (Rhodococcus opacus); test: as above

stoichiometry N [1]	stoichiometry N [2]	Substance
2	–	cis-epoxysuccinate hydrolase producing L(+)-tartaric acid from Klebsiella sp. BK-58 (KlCESH[L]) (enzyme)
–	2	cis-epoxysuccinate hydrolase producing L(+)-tartaric acid from Rhodococcus opacus (RhCESH[L]) (enzyme)

From paper PMC10869282
